Molecular target: full length T216A Mos1 transposase (Drosophila mauritiana)
Assay: crystal structure; Mos1 strand transfer complex (STC): T216A Mos1 transposase and strand transfer product DNA at 50 uM each in 25 mM PIPES-NaOH pH 7.5, 250 mM NaCl, 20 mM MgCl2, 1 mM DTT; sitting drop, 30% (v/v) MPD, 0.1 M sodium cacodylate pH 6.5, 0.2 M magnesium acetate; 3.3 Å; one STC in the asymmetric unit

- stoichiometry N: 2
Substance: full length T216A Mos1 transposase (enzyme)

— PMC5481204
